Key:
[1] = target: ATP-grasp ligase CdnC (Chryseobacterium gregarium DSM 19109); assay: SEC

stoichiometry N [1] | inhibition of chymotrypsin activity (protease inhibition assay) (chymotrypsin) [nM] | Substance
2 | – | ATP-grasp ligase CdnC (enzyme)
– | 70 | chryseoviridin (fully cyclized, full length core region of CdnA3) (peptide)
